Measured values reported in patent publication US7057015B1, “Hormone receptor functional dimers and methods of their use” (The Salk Institute for Biological Studies, priority 1999, dated 2006).

T1: Drosophila melanogaster ecdysone receptor (monomeric) (Drosophila melanogaster, UniProt P34021 1-878)
T1 construct: also called EcR; dmEcR
T1 sequence (looked up): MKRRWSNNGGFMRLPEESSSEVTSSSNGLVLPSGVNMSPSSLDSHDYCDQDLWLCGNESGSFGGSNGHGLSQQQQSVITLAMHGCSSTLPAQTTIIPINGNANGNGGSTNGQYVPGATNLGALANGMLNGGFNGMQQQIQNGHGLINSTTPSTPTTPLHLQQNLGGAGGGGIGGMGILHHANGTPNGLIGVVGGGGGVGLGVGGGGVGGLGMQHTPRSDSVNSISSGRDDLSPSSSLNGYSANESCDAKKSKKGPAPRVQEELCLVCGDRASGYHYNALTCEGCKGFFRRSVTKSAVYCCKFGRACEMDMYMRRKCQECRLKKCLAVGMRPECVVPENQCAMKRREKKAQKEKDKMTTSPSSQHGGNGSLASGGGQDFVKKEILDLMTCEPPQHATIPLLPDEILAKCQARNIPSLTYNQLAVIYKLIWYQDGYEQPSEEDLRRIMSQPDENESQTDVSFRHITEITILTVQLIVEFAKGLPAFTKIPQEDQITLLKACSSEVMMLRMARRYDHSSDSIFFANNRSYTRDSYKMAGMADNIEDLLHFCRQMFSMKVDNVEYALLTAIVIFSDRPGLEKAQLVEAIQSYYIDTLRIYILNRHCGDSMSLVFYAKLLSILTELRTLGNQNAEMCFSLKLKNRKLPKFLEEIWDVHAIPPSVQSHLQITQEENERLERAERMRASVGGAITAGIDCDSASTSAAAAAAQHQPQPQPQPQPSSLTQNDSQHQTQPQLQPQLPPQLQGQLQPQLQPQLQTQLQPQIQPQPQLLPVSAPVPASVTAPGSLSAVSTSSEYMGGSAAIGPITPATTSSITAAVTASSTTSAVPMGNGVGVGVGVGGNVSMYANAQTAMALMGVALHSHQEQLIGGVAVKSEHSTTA


Legend:
[1] = test system: E4-luc reporter plasmid in 293 cells; test: Transient transfection luciferase transactivation assay with E4-luc reporter; assay type: cell-based, human
Description: For quantitative transactivation analysis, transfections were performed in triplicate in 24-well plates by calcium-phosphate co-precipitation with 100 ng of an individual receptor, the reporter plasmid E4-luc, and pCH110 (SV40-β-galactosidase) as an internal control. Briefly, the reporter plasmid, E4-luc, was constructed of 4-tandem EcREs inserted upstream of a thymidine kinase gene minimal promoter directing luciferase expression. […] 1 μM ligand was added at the time of transfection, and the cells were harvested for luciferase assay 40 hours later. Harvested cell extracts were split, and one part was analyzed in a luminometer for luciferase activity and the other part was analyzed for β-galactosidase activity using an orthonitrophenyl galactoside assay by standard methods. Luciferase levels were normalized to β-galactosidase values to correct for slight differences in transfection efficiency.

EcRE probe = test: Gel mobility shift analysis of EcRE probe binding by FDs; conditions: 1 μM murA vs vehicle, extracts of transfected 293 cells
Description: Preparation of the invention fusion protein FDs for gel shift analysis by transient transfection into 293 cells was as follows: 300 ng of individual receptor plasmids and 100 ng pCH110 internal control plasmid were cotransfected into 293 cells at 60% density in Costar 6-well plates. One well of each group was treated with 1 μM murA as ligand at the time of transfection. 40 hours later, extracts of transfected 293 cells were made by scraping the cells from a well into a low volume of phosphate buffered saline, pelleting the cells, resuspending them in 200 μl 5×gel shift buffer (Yao et al., supra 1992), and sonicating with a Kontes cell disrupter for three 10-sec. bursts at output level 30. The extracts were then centrifuged to clear the lysate and the protein was quantified. […]
Comparative gel mobility shift analyses of FDs with control in vitro translated receptor complexes were performed using double stranded EcRE probes and labeled by Klenow fill using ^32P-dCTP and cold dGAT by standard methods. […] Band volumes were quantified using laser scanning densitometry.
An autoradiogram of FDs and controls treated either with control vehicle or with 1 μM of murA as ligand was made with markers indicating endodimer FD or wild type receptor-binding complex band shifts. […] FIG. 2A is a graph that quantifies endodimer-sized band volumes obtained from the autoradiogram.

[2] = target: T1, Drosophila melanogaster ecdysone …; test: gel mobility shift on 32P-labelled EcRE probe, proteins translated in vitro
Description: The reactions were allowed to proceed at 23° C. for 5 minutes at which time ligand or vehicle was added and the reaction allowed to continue for 20 additional minutes. Band volumes were quantified using laser scanning densitometry.

relative-fold increase in response element binding (endodimer band) resulting from ligand treatment (EcRE probe) [fold]	binding result [2]	Molecule	Rel. Ind. = relative induction of individual receptor groups ([1]; +ligand (1 μM murA) versus −ligand) [fold]	+Lig/E4 = luciferase activity vs. reporter only with ligand ([1]; transiently co-transfected 293 cells, 1 μM murA, relative to E4-luc reporter only)	−Lig/E4 = luciferase activity vs. reporter only without ligand ([1]; transiently co-transfected 293 cells, without ligand, relative to E4-luc reporter only)
0.9	–	E5U: fusion protein: Drosophila EcR at amino terminus, 5 linker segments (65 amino acids), ultraspiracle protein (protein) MKRRWSNNGGFMRLPEESSSEVTSSSNGLVLPSGVNMSPSSLDSHDYCDQDLWLCGNESGSFGGSNGHGLSQQQQSVITLAMHGCSSTLPAQTTIIPINGNANGNGGSTNGQYVPGATNLGALANGMLNGGFNGMQQQIQNGHGLINSTTPSTPTTPLHLQQNLGGAGGGGIGGMGILHHANGTPNGLIGVVGGGGGVGLGVGGGGVGGLGMQHTPRSDSVNSISSGRDDLSPSSSLNGYSANESCDAKKSKKGPAPRVQEELCLVCGDRASGYHYNALTCEGCKGFFRRSVTKSAVYCCKFGRACEMDMYMRRKCQECRLKKCLAVGMRPECVVPENQCAMKRREKKAQKEKDKMTTSPSSQHGGNGSLASGGGQDFVKKEILDLMTCEPPQHATIPLLPDEILAKCQARNIPSLTYNQLAVIYKLIWYQDGYEQPSEEDLRRIMSQPDENESQTDVSFRHITEITILTVQLIVEFAKGLPAFTKIPQEDQITLLKACSSEVMMLRMARRYDHSSDSIFFANNRSYTRDSYKMAGMADNIEDLLHFCRQMFSMKVDNVEYALLTAIVIFSDRPGLEKAQLVEAIQSYYIDTLRIYILNRHCGDSMSLVFYAKLLSILTELRTLGNQNAEMCFSLKLKNRKLPKFLEEIWDVHAIPPSVQSHLQITQEENERLERAERMRASVGGAITAGIDCDSASTSAAAAAAQHQPQPQPQPQPSSLTQNDSQHQTQPQLQPQLPPQLQGQLQPQLQPQLQTQLQPQIQPQPQLLPVSAPVPASVTAPGSLSAVSTSSEYMGGSAAIGPITPATTSSITAAVTASSTTSAVPMGNGVGVGVGVGGNVSMYANAQTAMALMGVALHSHQEQLIGGVAVKSEHSTTAGPTGPGPGGGSGGGSGTGPGGGSGGGSGTGPGGGSGGGSGTGPGGGSGGGSGTGPGGGSGGGSGTMDNCDQDASFRLSHIKEEVKPDISQLNDSNNSSFSPKAESPVPFMQAMSMVHVLPGSNSASSNNNSAGDAQMAQAPNSAGGSAAAAVQQQYPPNHPLSGSKHLCSICGDRASGKHYGVYSCEGCKGFFKRTVRKDLTYACRENRNCIIDKRQRNRCQYCRYQKCLTCGMKREAVQEERQRGARNAAGRLSASGGGSSGPGSVGGSSSQGGGGGGGVSGGMGSGNGSDDFMTNSVSRDFSIERIIEAEQRAETQCGDRALTFLRVGPYSTVQPDYKGAVSALCQVVNKQLFQMVEYARMMPHFAQVPLDDQVILLKAAWIELLIANVAWCSIVSLDDGGAGGGGGGLGHDGSFERRSPGLQPQQLFLNQSFSYHRNSAIKAGVSAIFDRILSELSVKMKRLNLDRRELSCLKAIILYNPDIRGIKSRAEIEMCREKVYACLDEHCRLEHPGDDGRFAQLLLRLPALRSISLKCQDHLFLFRITSDRPLEELFLEQLEAPPPPGLAMKLE	1.6	0.62	0.41
–	binds	human retinoid X receptor alpha (monomeric) (receptor, UniProt P19793 1-462, looked up, also called RXR; hRXR) MDTKHFLPLDFSTQVNSSLTSPTGRGSMAAPSLHPSLGPGIGSPGQLHSPISTLSSPINGMGPPFSVISSPMGPHSMSVPTTPTLGFSTGSPQLSSPMNPVSSSEDIKPPLGLNGVLKVPAHPSGNMASFTKHICAICGDRSSGKHYGVYSCEGCKGFFKRTVRKDLTYTCRDNKDCLIDKRQRNRCQYCRYQKCLAMGMKREAVQEERQRGKDRNENEVESTSSANEDMPVERILEAELAVEPKTETYVEANMGLNPSSPNDPVTNICQAADKQLFTLVEWAKRIPHFSELPLDDQVILLRAGWNELLIASFSHRSIAVKDGILLATGLHVHRNSAHSAGVGAIFDRVLTELVSKMRDMQMDKTELGCLRAIVLFNPDSKGLSNPAEVEALREKVYASLEAYCKHKYPEQPGRFAKLLLRLPALRSIGLKCLEHLFFFKLIGDTPIDTFLMEMLEAPHQMT	–	–	–
–	binds	Drosophila melanogaster ultraspiracle protein (monomeric) (receptor, UniProt P20153 1-508, looked up, also called Usp; dmUsp) MDNCDQDASFRLSHIKEEVKPDISQLNDSNNSSFSPKAESPVPFMQAMSMVHVLPGSNSASSNNNSAGDAQMAQAPNSAGGSAAAAVQQQYPPNHPLSGSKHLCSICGDRASGKHYGVYSCEGCKGFFKRTVRKDLTYACRENRNCIIDKRQRNRCQYCRYQKCLTCGMKREAVQEERQRGARNAAGRLSASGGGSSGPGSVGGSSSQGGGGGGGVSGGMGSGNGSDDFMTNSVSRDFSIERIIEAEQRAETQCGDRALTFLRVGPYSTVQPDYKGAVSALCQVVNKQLFQMVEYARMMPHFAQVPLDDQVILLKAAWIELLIANVAWCSIVSLDDGGAGGGGGGLGHDGSFERRSPGLQPQQLFLNQSFSYHRNSAIKAGVSAIFDRILSELSVKMKRLNLDRRELSCLKAIILYNPDIRGIKSRAEIEMCREKVYACLDEHCRLEHPGDDGRFAQLLLRLPALRSISLKCQDHLFLFRITSDRPLEELFLEQLEAPPPPGLAMKLE	–	–	–
